B1: KCNQ2-15bx: polypeptide of SEQ ID NO: 2, novel KCNQ2 splice variant (protein, listed as Homo sapiens)
chain: MVQKSRNGGVYPGPSGEKKLKVGFVGLDPGAPDSTRDGALLIAGSEAPKRGSILSKPRAGGAGAGKPPKRNAFYRKLQNFLYNVLERPRGWAFIYHAYVFLLVFSCLVLSVFSTIKEYEKSSEGALYILEIVTIVVFGVEYFVRIWAAGCCCRYRGWRGRLKFARKPFCVIDIMVLIASIAVLAAGSQGNVFATSALRSLRFLQILRMIRMDRRGGTWKLLGSVVYAHSKELVTAWYIGFLCLILASFLVYLAEKGENDHFDTYADALWWGLITLTTIGYGDKYPQTWNGRLLAATFTLIGVSFFALPAGILGSGFALKVQEQHRQKHFEKRRNPAAGLIQSAWRFYATNLSRTDLHSTWQYYERTVTVPMYSSQTQTYGASRLIPPLNQLELLRNLKSKSGLAFRKDPPPEPSPSKGSPCRGPLCGCCPGRSSQKVSLKDRVFSSPRGVAAKGKGSPQAQTVRRSPSADQSLEDSPSKVPKSWSFGDRSRARQAFRIKGAASRQNSEEASLPGEDIVDDKSCPCEFVTEDLTPGLKVSIRAVCVMRFLVSKRKFKESLRPYDVMDVIEQYSAGHLDMLSRIKSLQSRQEPRLPVQQGTRTGWASGTKPTVAHGGSAGGVWAGPPPHPRRPLSASVVSSQSLF
B2: KCNQ2-15by: polypeptide of SEQ ID NO: 4, novel KCNQ2 splice variant (protein, listed as Homo sapiens)
chain: MVQKSRNGGVYPGPSGEKKLKVGFVGLDPGAPDSTRDGALLIAGSEAPKRGSILSKPRAGGAGAGKPPKRNAFYRKLQNFLYNVLERPRGWAFIYHAYVFLLVFSCLVLSVFSTIKEYEKSSEGALYILEIVTIVVFGVEYFVRIWAAGCCCRYRGWRGRLKFARKPFCVIDIMVLIASIAVLAAGSQGNVFATSALRSLRFLQILRMIRMDRRGGTWKLLGSVVYAHSKELVTAWYIGFLCLILASFLVYLAEKGENDHFDTYADALWWGLITLTTIGYGDKYPQTWNGRLLAATFTLIGVSFFALPAGILGSGFALKVQEQHRQKHFEKRRNPAAGLIQSAWRFYATNLSRTDLHSTWQYYERTVTVPMYSSQTQTYGASRLIPPLNQLELLRNLKSKSGLAFRKDPPPEPSPSQKVSLKDRVFSSPRGVAAKGKGSPQAQTVRRSPSADQSLEDSPSKVPKSWSFGDRSRARQAFRIKGAASRQNSEEASLPGEDIVDDKSCPCEFVTEDLTPGLKVSIRAVCVMRFLVSKRKFKESLRPYDVMDVIEQYSAGHLDMLSRIKSLQSRQEPRLPVQQGTRTGWASGTKPTVAHGGSAGGVWAGPPPHPRRPLSASVVSSQSLF
B3: GST-2E11: fusion protein between a KCNQ2-15b polypeptide comprising exons 13, 14 and 15b and GST (protein)
chain: SSQKVSLKDRVFSSPRGVAAKGKGSPQAQTVRRSPSADQSLEDSPSKVPKSWSFGDRSRARQAFRIKGAASRQNSEEASLPGEDIVDDKSCPCEFVTEDLTPGLKVSIRAVCVMRFLVSKRKFKESLRPYDVMDVIEQYSAGHLDMLSRIKSLQSRQEPRLPVQQGTRTGWASGTKPTVAHGGSAGGVWAGPPPHPRRPLSASVVSSQSLF
modifications: left off: a dimerising Fc or GST
notes: fusion protein between a KCNQ2-15b polypeptide comprising exons 13, 14 and 15b and GST

How the values were obtained:
[1] = system: GSK-3β and PKA; test: In vitro phosphorylation assay of GST-2E11 with recombinant GSK-3β kinase and PKA; format: biochemical; conditions: LiCl added to the kination mix; signal negatively correlated with LiCl concentration
Method: Expression and purification of the GST-2E11 fusion protein were performed as described above. Beads with bound fusion protein corresponding to 1 ml of bacterial clear lysate were washed three times in NETN and one time with HMK buffer without DTT (20 mM Tris-HCl [pH 7.5], 120 mM NaCl, 12 mM MgCl2). Beads were resuspended in 240 μl of reaction mix (24 μl of 10×HMK Buffer with 20 mM DTT, 40 units of Protein Kinase A Catalytic Subunit [PKA from bovine heart, 250 units/vial, Sigma] in 40 mM DTT, 5 μl of 24 mM ATP and 207 μl of distilled water) and incubated for 30 min at room temperature. Beads were then washed three times in NETN buffer and one time in GSK-3β reaction buffer (20 mM Tris-HCl [pH 7.5], 10 mM MgCl2, 5 mM DTT) (New England Biolabs). Beads were then resuspended in 50 μl of reaction mix (5 μl of 10×GSK-3β reaction buffer, 1 μl of [^32P]γATP 10 mCi/ml, 50 U of recombinant GSK-3β[New England Biolabs], and distilled water for a final volume of 50 μl) and incubated at room temperature for 30 min. After three washes in NETN buffer, phosphorylated proteins were boiled in 2×Sample Buffer (125 mM Tris-HCl [pH 6.8], 4% SDS, 20% glycerol, 1.4 M β-Mercapto ethanol), resolved by 10% SDS-PAGE, and visualized by autoradiography.
In this phosphorylation assay, non-radiolabeled polypeptides to be tested are incubated in the presence of GSK-3β, PKA and radioactive ATP. […]

[2] = system: Xenopus laevis oocytes; test: Electrophysiological analysis (two-electrode voltage clamp) of homotetrameric potassium channels; format: cell-based; conditions: 0.4 ng of DNA injected
Method: The animal was anesthetized and pieces of the ovary were surgically removed and individual oocytes were dissected away in a saline solution (ND96) containing 96 mM NaCl, 2 mM KCl, 2 mM CaCl2, 2 mM MgCl2 and 5 mM HEPES at pH 7.4. Stage V and VI oocytes were treated at room temperanre for 2 h with collagenase type 1A (1 mg/ml) in the presence of 0.2 mg/ml trypsin inhibitor in saline solution to discard follicular cells. […] DNA corresponding to KCNQ2, 3H2 and 3H9 K+ channels were subcloned in PEKO vector in order to generate the respective cRNAS. cRNA concentrations were measured by absorbance at 260 nm. cRNA solutions were injected (about 50 nL/oocyte) using a pressure microinjector (Inject+matic, Geneve). Oocytes were then kept for 2-6 days in ND96 solution supplemented wirn 50 U/mL penicillin and 50 U/mL streptomycin.
In a 0.3 mL perfusion chamber, a single oocyte was impaled with two standard glass microelectrode (0.5-2 Mohm resistance) filled with 3M KCl and maintained under voltage clamp using a Dagan TEV200 amplifier system, USA. Electrical stimulations, data acquisition and analyses were performed using pClamp software (Axon Instruments, USA). […]

[3] = biological target: T1, PP2A/Bγ (Homo sapiens, UniProt Q9Y2T4, E66D/G293D/R253P); test: Solid phase overlay assay with radiolabeled GST-PPP2R2C probe; format: binding; conditions: 100 ng, 10 ng and 0.1 ng loaded; band intensity proportional to loaded quantity
T1 construct: The full-length coding region of the PPP2R2C gene, which encodes the PP2A/Bγ subunit; expressed in transfected cells; host or cells: Saccharomyces cerevisiae (AH109 / Y184 mating partners)
T1 sequence (Q9Y2T4 1-447 E66D/R253P/G293D): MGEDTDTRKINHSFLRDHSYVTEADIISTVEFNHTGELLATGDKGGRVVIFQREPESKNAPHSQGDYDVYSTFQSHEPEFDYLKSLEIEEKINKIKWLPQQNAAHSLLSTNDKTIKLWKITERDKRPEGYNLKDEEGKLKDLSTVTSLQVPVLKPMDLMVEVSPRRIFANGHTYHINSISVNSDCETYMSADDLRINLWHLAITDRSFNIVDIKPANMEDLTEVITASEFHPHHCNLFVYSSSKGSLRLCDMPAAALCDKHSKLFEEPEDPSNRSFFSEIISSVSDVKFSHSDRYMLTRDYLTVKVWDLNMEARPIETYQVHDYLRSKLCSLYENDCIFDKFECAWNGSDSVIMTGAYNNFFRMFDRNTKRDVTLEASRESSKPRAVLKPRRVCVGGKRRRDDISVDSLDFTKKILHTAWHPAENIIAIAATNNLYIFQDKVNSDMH
Method: Solid phase overlay assays were performed by adapting the method described by Kaelin and collaborators (Kaelin et al., 1992, Cell, 70:351-364). 100 ng, 10 ng and 0.1 ng of GST and GST-2E11 recombinant proteins were resolved by 9% SDS-PAGE and were transferred by electroblotting onto nitrocellulose membrane (nitrocellulose transfer membrane Protran BA 83, Schleicher and Schuell). The membrane were then blocked in HBB buffer (25 mM Hepes-KOH [pH 7.7], 25 mM NaCl, 5 mM MgCl2) with 5% (w/v) non-fat dry milk, 1 mM DTT, 0.05% Nonidet P-40 for 1 hr at room temperature. The binding reaction was carried out at room temperature in Hyb75 buffer (20 mM Hepes [pH 7.7], 75 mM KCl, 2.5 mM MgCl2, 0.1 mM EDTA, 0.05% Nonidet P-40) with 1% (w/v) non-fat dry milk, 1 mM DTT, 1 mM PMSF and 3.5 10^5dpm of a [^32P]-γATP GST-PPP2R2C radiolabeled recombinant protein used as a probe. After 4.5 hr of incubation, the membrane was washed with Hyb75 buffer, 1 mM DTT, 1% (w/v) non-fat dry milk three times for 15 min at room temperature. The blots were analyzed by autoradiography.
This experiment was performed to validate the interaction between KCNQ2-15b polypeptides and PP2A/Bγ. In this experiment, the PP2A/Bγ subunit was radiolabeled but not the proteins present on the nitrocellulose membrane. […] Furthermore, the intensity of the bands was proportional to the quantity of loaded GST-2E11. […]

Row | Molecule | intensity of the M-current generated by the homotetrameric potassium channel [2] | further results
1 | [Cl-].[Li+] [LiCl] |  | intensity of the phosphorylated GST-2E11 band [1]: decreased
2 | B1 | about 800 nA | 
3 | B2 | about 700 nA | 
4 | B3 |  | interaction with PP2A/Bγ (band by autoradiography) [3]: interacts
